Assay results reported in US6261814A, “Carboxylic acid reductase, and methods of using same” (University of Iowa Research Foundation, priority 1998, dated 2001).
Where “and” joins values, the source holds several entries; their conditions need not be identical. Equal values may be shown once. Entries after “also recorded” stand apart in the source; their conditions may differ.

Tests used:
[1] = target: T1, carboxylic acid reductase (Nocardia iowensis, UniProt Q6RKB1); assay: 13C NMR study of benzoyl-AMP reduction by purified carboxylic acid reductase; format: biochemical, Nocardia sp. NRRL 5646; conditions: 1.4 mM benzoyl-AMP, 2.0 mM NADPH, 20 min. at 20° C.
T1 construct: isolated and substantially purified from Nocardia sp. strain NRRL 5646; endogenous in cells; host or cells: Nocardia sp; NRRL 5646, benzoate-induced culture; enzyme purified by Mono-Q, Reactive Green 19 agarose and hydroxyapatite chromatography
T1 sequence (Q6RKB1 whole entry): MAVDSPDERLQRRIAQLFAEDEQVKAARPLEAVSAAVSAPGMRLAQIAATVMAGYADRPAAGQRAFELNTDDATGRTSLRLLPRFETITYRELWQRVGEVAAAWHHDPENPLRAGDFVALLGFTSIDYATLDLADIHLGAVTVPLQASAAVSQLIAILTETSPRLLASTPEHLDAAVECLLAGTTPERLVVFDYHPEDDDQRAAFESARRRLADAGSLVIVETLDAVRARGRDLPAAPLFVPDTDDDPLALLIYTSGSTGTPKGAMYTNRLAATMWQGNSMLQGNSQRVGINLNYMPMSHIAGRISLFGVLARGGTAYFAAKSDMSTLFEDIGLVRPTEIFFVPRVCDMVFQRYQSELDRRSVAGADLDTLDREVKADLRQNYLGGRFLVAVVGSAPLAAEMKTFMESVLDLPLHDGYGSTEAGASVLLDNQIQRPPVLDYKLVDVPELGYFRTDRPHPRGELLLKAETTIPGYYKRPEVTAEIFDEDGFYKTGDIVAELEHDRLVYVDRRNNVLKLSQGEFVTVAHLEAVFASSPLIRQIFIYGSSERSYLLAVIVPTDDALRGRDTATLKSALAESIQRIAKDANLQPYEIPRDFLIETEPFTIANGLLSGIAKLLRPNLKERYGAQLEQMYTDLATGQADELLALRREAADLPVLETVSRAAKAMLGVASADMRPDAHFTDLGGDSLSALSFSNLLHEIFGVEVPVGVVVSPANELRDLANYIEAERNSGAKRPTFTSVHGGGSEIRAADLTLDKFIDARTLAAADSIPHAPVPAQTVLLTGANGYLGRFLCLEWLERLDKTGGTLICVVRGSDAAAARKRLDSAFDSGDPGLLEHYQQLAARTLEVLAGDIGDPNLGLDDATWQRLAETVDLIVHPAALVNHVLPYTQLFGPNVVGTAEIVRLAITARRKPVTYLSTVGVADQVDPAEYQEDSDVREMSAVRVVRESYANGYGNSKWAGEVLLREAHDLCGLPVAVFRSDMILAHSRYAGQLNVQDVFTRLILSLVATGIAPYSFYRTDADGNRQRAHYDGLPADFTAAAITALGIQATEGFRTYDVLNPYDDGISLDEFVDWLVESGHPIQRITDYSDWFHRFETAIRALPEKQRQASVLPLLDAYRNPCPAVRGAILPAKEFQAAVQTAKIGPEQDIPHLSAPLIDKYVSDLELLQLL
Procedure: Using carboxyl-^13 C labeled benzoyl-AMP, synthesized as described in Example 1, the reduction of benzoyl-AMP to benzaldehyde with the substantially purified carboxylic acid reductase from Nocardia sp. NRRL 5646 was investigated with ^13 C NMR spectroscopy (see, FIG. 1). The substantially purified carboxylic acid reductase from Nocardia sp. NRRL 5646 and all other reagents were prepared or obtained in Example 1.
A 10 μl sample (0.05 units) of the substantially purified carboxylic acid reductase was added to initiate the reaction. A control sample was prepared containing everything except the enzyme. After 20 min. incubation at 20° C., the samples were subjected to NMR analysis. For ^13 C NMR spectroscopy, […] D2 O was added as the locking solvent, and […] of dioxane was added as an internal standard (67.4 ppm). NMR spectra were obtained with a Bruker WM 360-MHZ high-field spectrometer equipped with an IBM Aspect-2000 processor.

[2] = target: T1, carboxylic acid reductase; assay: Enzymatic reduction of vanillic acid to vanillin by purified carboxylic acid reductase; format: biochemical, Nocardia sp. NRRL 5646; conditions: with ATP and NADPH, purified enzyme
Procedure: The reaction mixture was incubated at 30° C. with gentle shaking for 24 hours, after which the entire reaction mixture was loaded onto a solid phase extraction cartridge (Chem Elut 1200, 200 ml aqueous solution capacity). After 5 min. of equilibration, the cartridge was washed with 2×100 ml of hexane, then washed again with 2×100 ml of dichloromethane (concentrated to less than 2 ml).
The extract was then transferred to a vial and the solvent was removed with a stream of nitrogen to give about 8 mg of the purified vanillin end product.
Mass spectrometry, ^1 H, and ^13 C NMR data confirmed that this compound was vanillin. The yield was determined to be 96% with UV spectrophotometric assay at 340 nm.

[3] = target: T1, carboxylic acid reductase; assay: Rate of carboxylic acid reduction after o-benzylation of vanillic acid (unpublished data); format: biochemical, Nocardia sp. NRRL 5646; conditions: substrate concentration 5 mM
[4] = test system: CC(C)Cc1ccc([C@@H](C)C(=O)O)cc1; assay: purified protein, by the assay type; conditions: other: purified enzyme; mean of three determinations; pH 7.5; 25.0 °C
[5] = test system: NC(=O)C1=CN([C@@H]2O[C@H](COP(=O)(O)OP(=O)(O)OC[C@H]3O[C@@H](n4cnc5c(N)ncnc54)[C@H](OP(=O)(O)O)[C@@H]3O)[C@@H](O)[C@H]2O)C=CC1; assay: purified protein, by the assay type; conditions: other: purified enzyme; mean of three determinations; pH 7.5; 25.0 °C
[6] = test system: Nc1ncnc2c1ncn2[C@@H]1O[C@H](COP(=O)(O)OP(=O)(O)OP(=O)(O)O)[C@@H](O)[C@H]1O; assay: purified protein, by the assay type; conditions: other: purified enzyme; mean of three determinations; pH 7.5; 25.0 °C
[7] = test system: CC(C)Cc1ccc([C@H](C)C(=O)O)cc1; assay: purified protein, by the assay type; conditions: other: purified enzyme; mean of three determinations; pH 7.5; 25.0 °C
[8] = target: carboxylic acid reductase (aryl aldehyde oxidoreductase) (Nocardia iowensis, UniProt Q6RKB1); assay: Standard aryl-aldehyde oxidoreductase assay: specific activity of the purified enzyme; format: biochemical, Nocardia sp. NRRL 5646; parameters: isolated and substantially purified from Nocardia sp. strain NRRL 5646; endogenous in cells; host or cells: Nocardia sp; NRRL 5646, benzoate-induced culture; enzyme purified by Mono-Q, Reactive Green 19 agarose and hydroxyapatite chromatography; conditions: after hydroxyapatite step
Sequence of carboxylic acid reductase (aryl aldehyde oxidoreductase) (Q6RKB1 whole entry): as above
Procedure: Enzyme assay. The standard aryl-aldehyde oxidoreductase assay solution contained 0.15 mM […], 1 mM ATP, and 5 mM sodium benzoate, 10 mM MgCl2 and 0.01 to 0.3 units of enzyme in 50 mM Tris-HCl buffer in a final volume of 0.7 ml. The reference cuvette contained all components except for benzoate. Enzyme reactions were initiated by adding enzyme, and they were monitored by recording the absorption decrease at 340 nm at 25° C. with a Shimadzu 160 spectrophotometer. One unit of the carboxylic acid reductase (aryl-aldehyde oxidoreductase) is defined as the amount of enzyme that catalyzes the reduction of 1 μmol benzoate to benzaldehyde per min. under standard assay conditions.
Protein assay. The concentration of protein was measured by the Bradford protein microassay (Bradford, Anal. Biochem. 72:248-254 (1976)), with bovine serum albumin as the standard.

[9] = Stability of the purified enzyme in buffer; format: physicochemical; conditions: 50 mM pH 7.5 Tris-HCl buffer, 10% glycerol, 8 hr at 4° C.
Procedure: Properties of the carboxylic acid reductase (aryl-aldehyde oxidoreductase).Inclusion of 10% glycerol in all chromatographic buffers was used to stabilize the enzyme. Nevertheless, the purified enzyme in 50 mM pH 7.5 Tris-HCl buffer, containing 10% glycerol, lost nearly […] of its activity in 8 hr at 4° C.

With `Nc1ncnc2c1ncn2[C@@H]1O[C@H](COP(=O)(O)OC(=O)c2ccccc2)[C@@H](O)[C@H]1O` [benzoyl AMP] as the molecule, how does the “reduction of benzoyl-AMP to benzaldehyde” value [1] read?
Its value is “completely reduced; also recorded: quantitatively reduced”.

Which results are given for `COc1cc(C(=O)O)ccc1O` [vanillic acid, 4-hydroxy-3-methoxybenzoic acid]?
transformation from vanillic acid to vanillin [2]: quantitative; increase in the rate of carboxylic acid reduction as a result of o-benzylation [3]: more than 15 fold

With “carboxylic acid reductase (aryl-aldehyde oxidoreductase) (Nocardia iowensis)” as the molecule, how does the Km [4] read?
The Km was 34.5 µM.

And the Km [5]?
Its Km is 29.3 µM and 57.3 ± 12.5 µM.

And the Km [6]?
The Km was 57.3 µM and 29.3 ± 3.1 µM.

And the Km [7]?
Its Km is 155 µM.

B1: Purified carboxylic acid reductase: carboxylic acid reductase (aryl-aldehyde oxidoreductase) isolated and purified from Nocardia sp. strain NRRL 5646 (protein, UniProt Q6RKB1 2-1174, looked up)
Carboxylic acid reductase: AVDSPDERLQRRIAQLFAEDEQVKAARPLEAVSAAVSAPGMRLAQIAATVMAGYADRPAAGQRAFELNTDDATGRTSLRLLPRFETITYRELWQRVGEVAAAWHHDPENPLRAGDFVALLGFTSIDYATLDLADIHLGAVTVPLQASAAVSQLIAILTETSPRLLASTPEHLDAAVECLLAGTTPERLVVFDYHPEDDDQRAAFESARRRLADAGSLVIVETLDAVRARGRDLPAAPLFVPDTDDDPLALLIYTSGSTGTPKGAMYTNRLAATMWQGNSMLQGNSQRVGINLNYMPMSHIAGRISLFGVLARGGTAYFAAKSDMSTLFEDIGLVRPTEIFFVPRVCDMVFQRYQSELDRRSVAGADLDTLDREVKADLRQNYLGGRFLVAVVGSAPLAAEMKTFMESVLDLPLHDGYGSTEAGASVLLDNQIQRPPVLDYKLVDVPELGYFRTDRPHPRGELLLKAETTIPGYYKRPEVTAEIFDEDGFYKTGDIVAELEHDRLVYVDRRNNVLKLSQGEFVTVAHLEAVFASSPLIRQIFIYGSSERSYLLAVIVPTDDALRGRDTATLKSALAESIQRIAKDANLQPYEIPRDFLIETEPFTIANGLLSGIAKLLRPNLKERYGAQLEQMYTDLATGQADELLALRREAADLPVLETVSRAAKAMLGVASADMRPDAHFTDLGGDSLSALSFSNLLHEIFGVEVPVGVVVSPANELRDLANYIEAERNSGAKRPTFTSVHGGGSEIRAADLTLDKFIDARTLAAADSIPHAPVPAQTVLLTGANGYLGRFLCLEWLERLDKTGGTLICVVRGSDAAAARKRLDSAFDSGDPGLLEHYQQLAARTLEVLAGDIGDPNLGLDDATWQRLAETVDLIVHPAALVNHVLPYTQLFGPNVVGTAEIVRLAITARRKPVTYLSTVGVADQVDPAEYQEDSDVREMSAVRVVRESYANGYGNSKWAGEVLLREAHDLCGLPVAVFRSDMILAHSRYAGQLNVQDVFTRLILSLVATGIAPYSFYRTDADGNRQRAHYDGLPADFTAAAITALGIQATEGFRTYDVLNPYDDGISLDEFVDWLVESGHPIQRITDYSDWFHRFETAIRALPEKQRQASVLPLLDAYRNPCPAVRGAILPAKEFQAAVQTAKIGPEQDIPHLSAPLIDKYVSDLELLQLL
Which specific activity [8] does the source give for B1 here?
Its specific activity is 5.9 units/mg of protein.

What about the loss of activity [9] of the same molecule?
The loss of activity was ~250%.
